Here are results for three molecules from PMC3967765 (Archives of biochemistry and biophysics, 2014).

Series [1] has as its target T1, huCOX-2 (human cyclooxygenase-2) (Homo sapiens, UniProt P35354, N580A).
T1 sequence (P35354 18-604 N580A): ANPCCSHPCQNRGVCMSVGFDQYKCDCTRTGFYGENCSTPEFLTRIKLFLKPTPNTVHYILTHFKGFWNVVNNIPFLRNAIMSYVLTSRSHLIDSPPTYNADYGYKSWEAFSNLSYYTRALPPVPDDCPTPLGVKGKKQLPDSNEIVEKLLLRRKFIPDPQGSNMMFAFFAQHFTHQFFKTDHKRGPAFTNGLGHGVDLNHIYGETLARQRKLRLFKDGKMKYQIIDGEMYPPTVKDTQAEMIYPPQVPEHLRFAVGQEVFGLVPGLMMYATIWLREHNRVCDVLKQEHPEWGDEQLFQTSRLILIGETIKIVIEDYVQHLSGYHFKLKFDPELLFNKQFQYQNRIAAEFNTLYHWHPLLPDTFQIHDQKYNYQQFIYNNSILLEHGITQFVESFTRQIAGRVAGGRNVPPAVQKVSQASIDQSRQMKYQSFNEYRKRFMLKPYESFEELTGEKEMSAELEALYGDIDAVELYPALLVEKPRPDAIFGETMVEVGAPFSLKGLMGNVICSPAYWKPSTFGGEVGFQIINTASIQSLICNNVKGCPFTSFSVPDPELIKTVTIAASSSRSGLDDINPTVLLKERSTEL
The settings on record: oxygen electrode.

Series [2] deals with T1, huCOX-2 (human cyclooxygenase-2).
The series “SEC” deals with the molecule itself. The series can be described thus: SEC. Background: In gel filtration, larger molecules generally elute earlier.
Substrate in series [3]: CCCCC/C=C\C/C=C\C/C=C\C/C=C\CCCC(=O)OCC(O)CO
The series can be described thus: purified protein. The settings on record: heme (Fe3+-protoporphyrin IX).

Substrate in series [4]: CCCCC/C=C\C/C=C\C/C=C\C/C=C\CCCC(=O)O
In words: purified protein. The note with it: heme (Fe3+-protoporphyrin IX).

Substrate in series [5]: CC/C=C\C/C=C\C/C=C\C/C=C\C/C=C\CCCC(=O)O
In words: purified protein. The note with it: heme (Fe3+-protoporphyrin IX).

As to `COc1ccc2cc([C@H](C)C(=O)O)ccc2c1` [Napx, naproxen], in series [1], the “% loss of activity” value is reported as 60-70 % loss of activity.
Consider `Cc1ccc(Cl)c(Nc2ccccc2C(=O)O)c1Cl` [Meclo, meclofenamic acid], for which the “oxygen electrode, 50 μM inhibitor, 30 min pre-incubation” value in series [2] was “Flurbiprofen, indomethacin, meclofenamic acid, and celecoxib caused near complete inhibition of cyclooxygenase activity”.

B1: FLAG N580A murine (mu) COX-2 (enzyme, UniProt Q05769 18-604, looked up)
chain: ANPCCSNPCQNRGECMSTGFDQYKCDCTRTGFYGENCTTPEFLTRIKLLLKPTPNTVHYILTHFKGVWNIVNNIPFLRSLIMKYVLTSRSYLIDSPPTYNVHYGYKSWEAFSNLSYYTRALPPVADDCPTPMGVKGNKELPDSKEVLEKVLLRREFIPDPQGSNMMFAFFAQHFTHQFFKTDHKRGPGFTRGLGHGVDLNHIYGETLDRQHKLRLFKDGKLKYQVIGGEVYPPTVKDTQVEMIYPPHIPENLQFAVGQEVFGLVPGLMMYATIWLREHNRVCDILKQEHPEWGDEQLFQTSRLILIGETIKIVIEDYVQHLSGYHFKLKFDPELLFNQQFQYQNRIASEFNTLYHWHPLLPDTFNIEDQEYSFKQFLYNNSILLEHGLTQFVESFTRQIAGRVAGGRNVPIAVQAVAKASIDQSREMKYQSLNEYRKRFSLKPYTSFEELTGEKEMAAELKALYSDIDVMELYPALLVEKPRPDAIFGETMVELGAPFSLKGLMGNPICSPQYWKPSTFGGEVGFKIINTASIQSLICNNVKGCPFTSFNVQDPQPTKTATIAASASHSRLDDINPTVLIKRRSTEL
Broadly, the stoichiometry N is a count of units in the complex or per binding partner. What is called Km is the substrate concentration at which the rate is half of its maximum. As a reminder, the kcat is the maximal rate divided by the concentration of active sites. In general, kcat/Km refers to the second-order rate constant that governs catalysis at low substrate concentration. Consider B1, for which the “stoichiometry N” value in the series “SEC” was 2. Besides, in the series “purified protein [3]”, the Km turned out to be 6.8 µM, the kcat worked out at 30.9 ± 0.7 s⁻¹ and the specificity constant (kcat/Km) is 4.5e+06 M⁻¹ s⁻¹. In addition, in the series “purified protein [4]”, the Michaelis constant (Km) was determined as 6.8 µM, the kcat was determined as 36.1 s⁻¹ and the kcat/Km is 5.3e+06 M⁻¹ s⁻¹. In “purified protein [5]”, the Michaelis constant (Km) was found to be 1.9 µM, the turnover number (kcat) amounted to 6.3 s⁻¹ and the catalytic efficiency (kcat/Km) is 3.3e+06 M⁻¹ s⁻¹.
